Molecular target: T1, hSTIM1 S340-M490 (CAD-containing construct) (human, UniProt Q13586 340-490)
T1 construct: also called the CAD; source: E. coli Rosetta (DE3), purified (IMAC, SEC, IEX, low salt SEC)
Test: SPR; Biacore T200; Orai1 peptide immobilised on a CM5 chip by ligand thiol coupling at 1000 RU; analytes injected at 10 µM; HBS-EP buffer (20 mM HEPES, pH 7.4, 150 mM NaCl, 3.4 mM EDTA, 0.005% Polysorbate 20), 30 µL/min
Conditions: both partners purified

T1 sequence (Q13586 340-490): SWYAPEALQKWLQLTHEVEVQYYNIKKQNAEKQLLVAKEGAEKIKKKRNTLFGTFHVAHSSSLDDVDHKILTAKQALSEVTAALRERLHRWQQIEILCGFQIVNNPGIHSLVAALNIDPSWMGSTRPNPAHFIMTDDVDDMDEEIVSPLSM

binding result: binds
B1: Orai1 C-terminal peptide with an extra N-terminal Cys (peptide)
peptide: CRSLVSHKTDRQFQELNELAEFARLQDQLDHRGDHPLTPGSHYA
notes: extra Cys added to the N-terminus for immobilisation via thiol coupling; The added Cys is coupled to the CM5 chip by thiol coupling, which leaves the C-terminal end free; also called Orai1 C-terminus; Orai1 C-terminal domain; source: synthetic peptide (Peptide 2.0), purified by SEC (Superdex Peptide)

Reference: paper PMC3540032, “Comprehensive Analysis and Identification of the Human STIM1 Domains for Structural and Functional Studies” (PLoS ONE, 2013)
